Paper PMC11040377, “Lymphocyte‐Activation Gene 3 Facilitates Pathological Tau Neuron‐to‐Neuron Transmission” (Advanced Science, 2024)

B1: human recombinant LAG3 (receptor)
chain: LQPGAEVPVVWAQEGAPAQLPCSPTIPLQDLSLLRRAGVTWQHQPDSGPPAAAPGHPLAPGPHPAAPSSWGPRPRRYTVLSVGPGGLRSGRLPLQPRVQLDERGRQRGDFSLWLRPARRADAGEYRAAVHLRDRALSCRLRLRLGQASMTASPPGSLRASDWVILNCSFSRPDRPASVHWFRNRGQGRVPVRESPHHHLAESFLFLPQVSPMDSGPWGCILTYRDGFNVSIMYNLTVLGLEPPTPLTVYAGAGSRVGLPCRLPAGVGTRSFLTAKWTPPGGGPDLLVTGDNGDFTLRLEDVSQAQAGTYTCHIHLQEQQLNATVTLAIITVTPKSFGSPGSLGKLLCEVTPVSGQERFVWSSLDTPSQRSFSGPWLEAQEAQLLSQPWQCQLYQGERLLGAAVYFTELSSPGAQRSGRAPGALPAGHL
B2: Lag3 (lymphocyte-activation gene 3), on transfected SH-SY5Y cells (receptor, UniProt Q61790 24-521, looked up)
chain: GPGKELPVVWAQEGAPVHLPCSLKSPNLDPNFLRRGGVIWQHQPDSGQPTPIPALDLHQGMPSPRQPAPGRYTVLSVAPGGLRSGRQPLHPHVQLEERGLQRGDFSLWLRPALRTDAGEYHATVRLPNRALSCSLRLRVGQASMIASPSGVLKLSDWVLLNCSFSRPDRPVSVHWFQGQNRVPVYNSPRHFLAETFLLLPQVSPLDSGTWGCVLTYRDGFNVSITYNLKVLGLEPVAPLTVYAAEGSRVELPCHLPPGVGTPSLLIAKWTPPGGGPELPVAGKSGNFTLHLEAVGLAQAGTYTCSIHLQGQQLNATVTLAVITVTPKSFGLPGSRGKLLCEVTPASGKERFVWRPLNNLSRSCPGPVLEIQEARLLAERWQCQLYEGQRLLGATVYAAESSSGAHSARRISGDLKGGHLVLVLILGALSLFLLVAGAFGFHWWRKQLLLRRFSALEHGIQPFPAQRKIEELERELETEMGQEPEPEPEPQLEPEPRQL
notes: also called FL; Lag3-expressing SH-SY5Y cells; source: SH-SY5Y cells, transiently transfected (Lipofectamine 2000), on cells

Experiments:
[1] = target: T1, Tau-biotin PFF (AD-Tau-induced Tau preformed fibrils, biotin-labelled) (human, UniProt P10636-8 1-441, biotin (Sulfo-NHS-LC-Biotin)); assay: ELISA; Tau-biotin PFF and human recombinant LAG3; format not described in the text shown; details: both partners purified
T1 construct: Tau, human, WT isoform T40 (2N4R), 441 amino acid residues; Fibrillar assembly of many Tau chains; concentrations are monomer equivalents; also called Tau PFF; AD-Tau-induced Tau PFF-biotin; source: E. coli BL21(DE3), purified (HiTrap SP HP); fibrillised with AD-Tau seeds from AD brains, sonicated

[2] = target: Tau oligomers (globular, 30% sucrose fraction), biotin-labelled (human, biotin); assay: cell surface binding assay (streptavidin-alkaline phosphatase staining); SH-SY5Y cells transfected with Lag3 or its deletion mutants; biotin-labelled ligand at different concentrations (monomer equivalent) in DMEM with 10% FBS, 2 h at RT; washed, fixed, bound biotin detected with streptavidin-AP and BCIP/NBT; intensity by ImageJ, KD by GraphPad Prism; details: one partner purified
amyloid-β (Aβ) PFF = assay: as above; details: one partner purified

T1 sequence (P10636 other isoform, or with tags, fused parts or gaps): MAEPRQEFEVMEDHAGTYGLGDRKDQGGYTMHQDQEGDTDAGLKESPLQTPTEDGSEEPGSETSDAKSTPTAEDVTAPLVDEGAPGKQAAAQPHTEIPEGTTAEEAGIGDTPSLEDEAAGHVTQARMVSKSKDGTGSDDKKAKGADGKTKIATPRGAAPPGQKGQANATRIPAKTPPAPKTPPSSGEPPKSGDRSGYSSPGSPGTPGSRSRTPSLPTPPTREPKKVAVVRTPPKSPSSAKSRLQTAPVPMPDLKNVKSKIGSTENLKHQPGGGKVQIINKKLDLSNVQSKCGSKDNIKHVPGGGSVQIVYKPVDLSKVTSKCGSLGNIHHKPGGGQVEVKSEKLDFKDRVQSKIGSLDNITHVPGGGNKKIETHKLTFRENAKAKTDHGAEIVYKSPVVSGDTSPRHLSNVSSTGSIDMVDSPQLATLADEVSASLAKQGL

Binder	Kd [1]	Kd [2]	Kd (amyloid-β (Aβ) PFF)
B1	3 nM		
B2		1300 nM	310 nM
